According to US10500249B2, “Compositions and methods for preventing or treating diseases, conditions, or processes characterized by aberrant fibroblast proliferation and extracellular matrix deposition” (MOERAE MATRIX, INC., priority 2014, dated 2019):

Tests used:
Test in all cases: Kinase Profiling Assay
Assay type in all cases: biochemical
Conditions in all cases: 100 μM
PKCη (h) = PKCη (h) (Homo sapiens, UniProt P24723)
How it was run: (§1)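 Radiometric filter-binding format: cationic substrate takes up labeled phosphate from ATP unless the inhibitor peptide blocks the kinase. Substrate bound to an anionic filter, scintillation-counted, normalized to 100% activity control. Duplicates; part of a 266-kinase selectivity panel for MK2 peptides.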

GCK (h) = target: T1, GCK (h) (Homo sapiens, UniProt Q12851)
T1 construct: purchased Millipore
T1 sequence (Q12851 1-820): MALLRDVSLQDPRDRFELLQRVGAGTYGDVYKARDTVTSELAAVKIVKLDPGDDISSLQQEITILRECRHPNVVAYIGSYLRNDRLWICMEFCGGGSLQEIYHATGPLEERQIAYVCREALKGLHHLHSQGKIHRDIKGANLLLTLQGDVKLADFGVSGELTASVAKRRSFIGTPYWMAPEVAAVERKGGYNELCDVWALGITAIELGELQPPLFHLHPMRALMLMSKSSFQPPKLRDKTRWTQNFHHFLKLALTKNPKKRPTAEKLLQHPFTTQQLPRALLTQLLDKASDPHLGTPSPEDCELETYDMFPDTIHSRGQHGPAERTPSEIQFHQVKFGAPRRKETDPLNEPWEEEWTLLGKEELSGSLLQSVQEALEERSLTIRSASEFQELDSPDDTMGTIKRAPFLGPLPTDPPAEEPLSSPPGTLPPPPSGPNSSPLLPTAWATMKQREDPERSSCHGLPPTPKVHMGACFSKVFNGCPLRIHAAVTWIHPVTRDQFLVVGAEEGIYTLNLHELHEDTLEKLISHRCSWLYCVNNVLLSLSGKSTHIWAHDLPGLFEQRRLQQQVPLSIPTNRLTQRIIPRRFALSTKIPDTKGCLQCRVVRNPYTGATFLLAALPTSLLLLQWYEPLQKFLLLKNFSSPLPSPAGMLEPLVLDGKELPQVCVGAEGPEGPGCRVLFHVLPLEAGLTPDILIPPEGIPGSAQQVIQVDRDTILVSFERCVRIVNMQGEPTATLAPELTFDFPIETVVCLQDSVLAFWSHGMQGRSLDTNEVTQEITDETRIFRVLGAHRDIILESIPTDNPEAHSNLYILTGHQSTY
How it was run: as §1

EphB3 (h) = target: T2, EphB3 (h) (Homo sapiens, UniProt P54753)
T2 sequence (P54753 34-998): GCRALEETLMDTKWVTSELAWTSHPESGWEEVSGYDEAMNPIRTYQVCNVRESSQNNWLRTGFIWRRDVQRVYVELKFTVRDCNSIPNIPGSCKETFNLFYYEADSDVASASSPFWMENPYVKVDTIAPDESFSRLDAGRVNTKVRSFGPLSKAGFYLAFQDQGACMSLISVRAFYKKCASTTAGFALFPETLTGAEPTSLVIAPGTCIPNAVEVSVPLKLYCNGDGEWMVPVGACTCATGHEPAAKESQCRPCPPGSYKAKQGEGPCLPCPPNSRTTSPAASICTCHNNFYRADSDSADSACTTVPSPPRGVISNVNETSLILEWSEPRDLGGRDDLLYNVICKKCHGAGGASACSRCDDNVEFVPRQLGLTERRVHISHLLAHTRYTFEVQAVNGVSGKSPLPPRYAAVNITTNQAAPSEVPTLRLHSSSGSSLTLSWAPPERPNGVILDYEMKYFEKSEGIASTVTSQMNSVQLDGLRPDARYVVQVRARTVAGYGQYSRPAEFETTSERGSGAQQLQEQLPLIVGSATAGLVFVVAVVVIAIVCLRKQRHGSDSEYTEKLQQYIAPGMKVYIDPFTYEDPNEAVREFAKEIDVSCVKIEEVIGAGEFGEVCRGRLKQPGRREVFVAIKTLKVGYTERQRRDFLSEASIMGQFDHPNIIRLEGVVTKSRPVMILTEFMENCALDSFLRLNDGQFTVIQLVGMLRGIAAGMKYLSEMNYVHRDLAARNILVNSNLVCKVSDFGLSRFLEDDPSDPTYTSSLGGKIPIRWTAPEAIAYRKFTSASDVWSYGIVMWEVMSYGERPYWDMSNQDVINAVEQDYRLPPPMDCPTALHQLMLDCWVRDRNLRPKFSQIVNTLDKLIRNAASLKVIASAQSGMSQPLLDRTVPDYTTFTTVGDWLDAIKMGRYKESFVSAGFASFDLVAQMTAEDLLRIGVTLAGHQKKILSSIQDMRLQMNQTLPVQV
How it was run: as §1

DDR2 (h) = target: T3, DDR2 (h) (Homo sapiens, UniProt Q16832)
T3 construct: purchased Millipore
T3 sequence (Q16832 22-855): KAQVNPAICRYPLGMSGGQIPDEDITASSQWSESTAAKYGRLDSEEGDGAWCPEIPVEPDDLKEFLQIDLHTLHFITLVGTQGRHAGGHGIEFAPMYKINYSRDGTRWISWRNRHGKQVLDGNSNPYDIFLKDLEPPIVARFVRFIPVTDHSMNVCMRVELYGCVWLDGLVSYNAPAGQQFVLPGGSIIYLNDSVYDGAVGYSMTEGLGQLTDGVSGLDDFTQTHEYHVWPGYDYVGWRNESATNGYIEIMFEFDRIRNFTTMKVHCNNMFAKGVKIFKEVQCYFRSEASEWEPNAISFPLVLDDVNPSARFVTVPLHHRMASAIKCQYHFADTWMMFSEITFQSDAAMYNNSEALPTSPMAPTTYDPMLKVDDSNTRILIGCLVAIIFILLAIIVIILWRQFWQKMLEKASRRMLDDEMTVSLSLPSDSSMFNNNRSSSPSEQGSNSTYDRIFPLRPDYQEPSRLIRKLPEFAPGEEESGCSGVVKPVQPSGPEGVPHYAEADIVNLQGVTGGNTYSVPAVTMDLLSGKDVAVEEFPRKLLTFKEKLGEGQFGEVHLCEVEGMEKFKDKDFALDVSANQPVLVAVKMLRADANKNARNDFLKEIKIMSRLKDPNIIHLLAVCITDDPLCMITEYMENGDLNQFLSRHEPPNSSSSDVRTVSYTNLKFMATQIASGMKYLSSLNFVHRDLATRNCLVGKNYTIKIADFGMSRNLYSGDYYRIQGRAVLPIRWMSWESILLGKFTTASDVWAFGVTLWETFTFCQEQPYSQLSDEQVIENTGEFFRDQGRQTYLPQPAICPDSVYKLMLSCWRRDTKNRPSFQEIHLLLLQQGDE
How it was run: as §1

Chain of PKCη (h) (P24723 whole entry): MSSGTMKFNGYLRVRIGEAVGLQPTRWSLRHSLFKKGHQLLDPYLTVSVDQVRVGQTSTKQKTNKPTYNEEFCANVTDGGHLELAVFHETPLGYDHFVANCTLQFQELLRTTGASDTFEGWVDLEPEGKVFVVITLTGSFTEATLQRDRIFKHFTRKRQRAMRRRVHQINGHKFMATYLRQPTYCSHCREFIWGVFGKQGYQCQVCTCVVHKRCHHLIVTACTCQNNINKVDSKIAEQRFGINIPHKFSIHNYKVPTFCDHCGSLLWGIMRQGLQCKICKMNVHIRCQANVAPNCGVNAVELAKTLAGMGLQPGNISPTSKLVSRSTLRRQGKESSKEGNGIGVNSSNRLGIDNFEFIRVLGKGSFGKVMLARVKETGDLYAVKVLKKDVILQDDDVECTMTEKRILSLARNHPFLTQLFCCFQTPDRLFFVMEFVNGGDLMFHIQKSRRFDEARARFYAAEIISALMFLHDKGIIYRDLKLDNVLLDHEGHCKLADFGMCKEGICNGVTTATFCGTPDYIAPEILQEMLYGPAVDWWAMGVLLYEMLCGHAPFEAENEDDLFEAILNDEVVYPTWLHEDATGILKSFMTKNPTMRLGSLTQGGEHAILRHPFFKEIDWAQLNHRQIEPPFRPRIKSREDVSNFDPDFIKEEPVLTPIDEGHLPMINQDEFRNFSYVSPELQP

Row | Sequence | % activity (PKCη (h)) | % activity (GCK (h)) | % activity (EphB3 (h)) | % activity (DDR2 (h))
1 | YARAAARQARAKALNRQLGVA (Mammalian) [MMI-0200] | 101% | 99% | 128% | 
2 | HRRIKAWLKKIKALARQLGVAA (Mammalian) [MMI-0500] | 45% | 30% | 79% | 79%
3 | FAKLAARLYRKALARQLGVAA [MMI-0300] |  | 70% | 62% | 94%
4 | KAFAKLAARLYRKALARQLGVAA [MMI-0400] | 98% | 66% | 47% | 95%
